Results on one molecule are retold here after paper PMC3630089, “ATP-Dependent Chromatin Remodeling by Cockayne Syndrome Protein B and NAP1-Like Histone Chaperones Is Required for Efficient Transcription-Coupled DNA Repair” (PLoS Genetics, 2013).

This experiment has as its target T1, CSBΔN1 (CSB lacking amino acids 245-365), purified from SF9 cells (human, UniProt Q03468 1-1493, removing amino acids 245–365).
T1 construct: CSB with the N1 region (amino acids 245-365) removed; probably Flag-tagged like the other SF9 CSB proteins; source: SF9 cells, purified
The experiment can be described thus: pull-down; GST-NAP1L1 immobilized on glutathione beads, mixed with purified CSB or CSBΔN1; Western blot. The conditions noted are these: both partners purified.

T1 sequence (Q03468 other isoform, or with tags, fused parts or gaps with the stated changes): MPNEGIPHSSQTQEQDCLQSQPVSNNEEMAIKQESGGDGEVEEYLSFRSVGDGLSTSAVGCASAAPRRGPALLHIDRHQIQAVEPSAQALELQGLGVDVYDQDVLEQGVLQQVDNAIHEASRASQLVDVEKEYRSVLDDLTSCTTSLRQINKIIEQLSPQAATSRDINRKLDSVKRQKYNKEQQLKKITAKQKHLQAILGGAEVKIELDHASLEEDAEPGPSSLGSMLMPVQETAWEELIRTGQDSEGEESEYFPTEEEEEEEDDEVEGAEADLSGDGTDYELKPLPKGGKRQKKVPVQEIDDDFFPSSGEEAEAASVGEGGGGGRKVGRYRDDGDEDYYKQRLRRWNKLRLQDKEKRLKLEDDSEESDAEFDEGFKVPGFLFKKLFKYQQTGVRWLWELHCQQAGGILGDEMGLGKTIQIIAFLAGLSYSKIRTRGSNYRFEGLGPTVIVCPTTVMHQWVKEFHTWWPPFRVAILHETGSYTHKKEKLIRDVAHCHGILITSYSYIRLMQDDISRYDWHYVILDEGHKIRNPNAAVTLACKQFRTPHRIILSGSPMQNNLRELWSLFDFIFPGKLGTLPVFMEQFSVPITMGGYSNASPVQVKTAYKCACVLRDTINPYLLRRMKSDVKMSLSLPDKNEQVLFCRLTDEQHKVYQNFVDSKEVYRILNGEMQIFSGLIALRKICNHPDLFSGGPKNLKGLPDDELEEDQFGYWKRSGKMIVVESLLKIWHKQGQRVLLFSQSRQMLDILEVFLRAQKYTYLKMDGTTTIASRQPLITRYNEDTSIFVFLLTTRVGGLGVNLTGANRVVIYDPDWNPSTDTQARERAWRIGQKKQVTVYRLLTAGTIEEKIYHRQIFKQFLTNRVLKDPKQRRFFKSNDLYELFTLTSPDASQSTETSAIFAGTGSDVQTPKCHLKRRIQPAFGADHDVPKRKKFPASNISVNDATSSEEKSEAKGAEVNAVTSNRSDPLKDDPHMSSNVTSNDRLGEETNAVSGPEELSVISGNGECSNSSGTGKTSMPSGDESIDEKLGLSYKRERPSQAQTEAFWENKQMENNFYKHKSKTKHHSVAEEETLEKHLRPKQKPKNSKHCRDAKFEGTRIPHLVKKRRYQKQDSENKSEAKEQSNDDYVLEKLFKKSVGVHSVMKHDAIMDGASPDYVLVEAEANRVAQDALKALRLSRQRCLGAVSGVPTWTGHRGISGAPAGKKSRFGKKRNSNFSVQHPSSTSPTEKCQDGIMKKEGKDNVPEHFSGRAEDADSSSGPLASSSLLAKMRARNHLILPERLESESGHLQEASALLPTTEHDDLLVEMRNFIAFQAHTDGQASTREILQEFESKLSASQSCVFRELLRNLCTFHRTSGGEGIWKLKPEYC

B1: GST-NAP1L1 fusion protein (natural protein, human, UniProt P55209 1-391, looked up)
chain: MADIDNKEQSELDQDLDDVEEVEEEETGEETKLKARQLTVQMMQNPQILAALQERLDGLVETPTGYIESLPRVVKRRVNALKNLQVKCAQIEAKFYEEVHDLERKYAVLYQPLFDKRFEIINAIYEPTEEECEWKPDEEDEISEELKEKAKIEDEKKDEEKEDPKGIPEFWLTVFKNVDLLSDMVQEHDEPILKHLKDIKVKFSDAGQPMSFVLEFHFEPNEYFTNEVLTKTYRMRSEPDDSDPFSFDGPEIMGCTGCQIDWKKGKNVTLKTIKKKQKHKGRGTVRTVTKTVSNDSFFNFFAPPEVPESGDLDDDAEAILAADFEIGHFLRERIIPRSVLYFTGEAIEDDDDDYDEEGEEADEEGEEEGDEENDPDYDPKKDQNPAECKQQ
notes: human NAP1-like histone chaperone NAP1L1; source: bacterially expressed, immobilized on glutathione beads
Regarding B1, the binding result was “binds”.
